Results as given in publication PMC5384189 (2017).
One block for each molecule: values may come before it.

Assays:
[1] = biological target: Growth hormone secretagogue receptor (Homo sapiens) (UniProt Q92847); conditions: cited from earlier work
ghrelin [2] = biological target: T1, ghrelin (Homo sapiens, UniProt Q9UBU3, octanoylated ghrelin); assay: fluorescence displacement of atto520-ghrelin
T1 chain: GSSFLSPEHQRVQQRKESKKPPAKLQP

ghrelin [3] = biological target: T1, ghrelin; assay: fluorescence displacement of atto520-ghrelin (Goldstein-Barrett corrected)

Molecule: Ghrelin (from UniProt Q9UBU3)
Kd [1]: 0.15 nM

IC50 (ghrelin [2]): 6870 nM | Ki (ghrelin [3]): 10 nM
B1: GHS receptor (GHSR1a) (protein)
chain: MWNATPSEEPGFNLTLADLDWDASPGNDSLGDELLQLFPAPLLAGVTATCVALFVVGIAGNLLTMLVVSRFRELRTTTNLYLSSMAFSDLLIFLCMPLDLVRLWQYRPWNFGDLLCKLFQFVSESCTYATVLTITALSVERYFAICFPLRAKVVVTKGRVKLVIFVIWAVAFCSAGPIFVLVGVEHENGTDPWDTNECRPTEFAVRSGLLTVMVWVSSIFFFLPVFCLTVLYSLIGRKLWRRRRGDAVVGASLRDQNHKQTVKMLAVVVFAFILCWLPFHVGRYLFSKSFEPGSLEIAQISQYCNLVSFVLFYLSAAINPILYNIMSKKYRVAVFRLLGFEPFSQRKLSTLKDESSRAWTESSINT
